Target: T1, NanoLuc-cTAGE5-CC2 (predicted binding region of cTAGE5 coiled-coil 2 with a Nanoluciferase tag at the …)
T1 construct: The fusion construct was expressed inside live HEK293T cells; also called C5-CC2; c5-CC2
T1 chain: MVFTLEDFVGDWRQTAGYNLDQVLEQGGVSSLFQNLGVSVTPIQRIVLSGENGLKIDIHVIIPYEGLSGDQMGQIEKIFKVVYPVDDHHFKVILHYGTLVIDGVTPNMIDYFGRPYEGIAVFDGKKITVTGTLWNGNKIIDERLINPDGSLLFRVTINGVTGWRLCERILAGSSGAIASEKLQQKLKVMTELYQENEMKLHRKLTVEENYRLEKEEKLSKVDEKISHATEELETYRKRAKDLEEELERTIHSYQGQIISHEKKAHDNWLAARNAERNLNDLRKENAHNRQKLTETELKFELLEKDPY
Assay: NanoBRET in live HEK293T cells (HaloTag 618 acceptor, NanoLuc donor)

B1: Halo-T1-CC2 (portion of the coiled-coil region CC2 of TANGO1 with an N-terminal fusion of HaloTag) (other)
chain: MAEIGTGFPFDPHYVEVLGERMHYVDVGPRDGTPVLFLHGNPTSSYVWRNIIPHVAPTHRCIAPDLIGMGKSDKPDLGYFFDDHVRFMDAFIEALGLEEVVLVIHDWGSALGFHWAKRNPERVKGIAFMEFIRPIPTWDEWPEFARETFQAFRTTDVGRKLIIDQNVFIEGTLPMGVVRPLTEVEMDHYREPFLNPVDREPLWRFPNELPIAGEPANIVALVEEYMDWLHQSPVPKLLFWGTPGVLIPPAEAARLAKSLPNCKAVDIGPGLNLLQEDNPDLIGSEIARWLSTLEISGEPTTEDLYFQSDNAIASELRQKVEILNELYQQKEMALQKKLSQEEYERQEREHRLSAADEKAVSAAEEVKTYKRRIEEMEDELQKTERSFKNQIATHEKKAHENWLKARAAERAIAEEKREAANLRHKLLELTQKMAMLQEEP
modifications: HaloTag labeled with the HaloTag 618 fluorescent ligand
notes: The fusion construct was expressed inside live HEK293T cells; also called Halo-TANGO1-CC2; TANGO1-CC2
- binding result: binds
